Laboratory results reported in publication PMC7188244.

How the values were obtained:
[1] = target: HA-tagged SQSTM1-NUP214^FGmut fusion protein (human) (UniProt P35658); test: co-IP; nuclear lysates of stably transduced MEFs; anti-HA antibody overnight at 4°C, Protein G Dynabeads; washes with 150 and 175 mM NaCl buffer; immunoblot with anti-Crm1 and anti-HA, Crm1 signal/HA signal quantified on LI-COR Odyssey; cells untreated or treated with LMB (10 nM, 2 hours)
[2] = target: HA-tagged SQSTM1-NUP214 fusion protein (human) (UniProt P35658); test: as above

“Crm1 (chromosome region maintenance 1) (from UniProt Q6P5F9 1-1071)” showed a percent reduction of Crm1 binding by LMB (10 nM, 2 hours) [1] of 52%.

For “Crm1 (chromosome region maintenance 1) (from UniProt Q6P5F9 1-1071) (natural protein)”, the percent reduction of Crm1 binding by LMB (10 nM, 2 hours) [2] was 58% and the percent reduction of Crm1 binding against SQSTM1-NUP214 [1] was greater than 50%.
